# Assay results: article PMC4914113, “Another look at the mechanism involving trimeric dUTPases in Staphylococcus aureus pathogenicity island induction involves novel players in the party” (Nucleic Acids Research, 2016)
# Molecular target: Dut80α D81A D110C S168C (Staphylococcus aureus phage 80α)
# Assay: BLI; as a1 but non-reducing buffer (400 mM NaCl, 75 mM HEPES pH 7.5, 5 mM MgCl2) with 0.5 mM dUPNPP; 1:1 model
substance,measurement,value
Stl repressor from SaPIbov1 (natural protein),Kd,19.3 nM
same,koff,0.0011 s⁻¹
same,kon,57000 M⁻¹ s⁻¹
